Measured values: the DeepSol protein solubility set

Test: soluble on expression in E. coli; label from the status in PepcDB or PDB records
With “MGSDKIHHHHHHLLQRTFNIQHHSSLPLLSILSYFPTSLLKPGGRMAIVLPQGRFNNSSDKNIRDFIAERCRILAVVGLHGNTFKPHTGTKTSVLFVQKWNDDPKAGALCPRQDDYNIFFATMRKSGKDNSGDKIWRKISSSTASPPDDELSDLMPPSPVQRVVGVEGDFLRDNHEHLVVDHDLYNHEGKTEDGIAEAFIEFAKKENFSFFELSPSVTPFDAVKYQQLMDGLEAVEVSLNQALDHNLHFRFDSEFFKRIYFQVEAEIKALPHTRLSSTQPIIIHPTEIKREYVEDDSSGVLFFRTQNLRPLRVDLSNQVYISEEDAAKLSKNIIQKNDVLITITGANFGDTLIFKGEIEAIALSHVFILRNKKISQSFLAVFLNTFYGREQINKGMYGGV” the “soluble on expression in E. coli” value was “not soluble”. For “SLKKIVESTTFPRTKQSITEDLKALGLKKGMTVLVHSSLSSIGWVNGGAVAVIQALIDVVTEEGTIVMPSQSVELSDPKEWGNPPVPEEWWDIIRESMPAYNSNYTPTTRGMGQIVELFRSYPEVKRSNHPNYSFVAWGKHKNKILNQHPLEFGLGEQSPLGKLYIRESYVLLLGADFDSSTCFHLAEYRIPYQKIINRGAPIIVEGKRVWKEYKELEFREELFQEVGQAFEAEHNMKVGKVGSANCRLFSLTEAVDFAEKWFINNDSKNIKK”, the “soluble on expression in E. coli” value was “soluble”. With “KYSLLEIGLKKDNGSSETIKLKREAIKFENNTVKSYIIKDAKKIGYISIPSFYSDDSNPNALGAANELSKEILKLKNENIEGLIIDLRNNGGGSLYEAVGMSGLFIDIGPLFYVLERSGKATLTKDMNRGTVYDGPLCIMVNGYSASASEIFSAAMQDNHRALIVGEQTYGKATGQSISQLDTTKSISTFSATDNMGATKITEIKLYRTSGFSYQGKGVTPDIILPYL” the “soluble on expression in E. coli” value was “not soluble”. With “MKKPSKCQSPGDSSISAKENDAQSNRSRDSKVAPKSEGLATGLDETEWKSRLTTPEIVLKEIRTLEGVSYYHGMVARDLVESKLTRCGDYLIRATDNRIMEFEFILSFFNKKRIHSHLTIKCDVEAGKWALGLLSVNQFSSVVDLTNFYKTNPIGAGFFLKRAISKGKYMIAHDRIKYSPKDDLLGTGNFSDVFRGKIELENQMVNVALKTTKLLDDTMDPTKNVKANKIKKEMIQEAEVMSQLRHANVTSFFGIAVDRLPILLIIEFCNGGNLQGHLIKFGDRIGTNERFLYLHDASAGLNYIHAMSITHRDIAARNCLISVNGFVKLSDFGMGLKVRRNESAKKVAEDDDGKENKEPKLPVRWMSPELVDTPDAFSKMSDMWSLGILAYEIFTNATKPFFNLDDTDVMQTVKSGKHPPLPLSMGPDLIRLLKDVLVAAPTQRTTADKFYNELHVLCTQKGALSLNGLTINQIRGISRKRVEHWEGYIPQVVICDKNGNERDWGDAPQEMLANVVWRGKK” the “soluble on expression in E. coli” value was “not soluble”. With “MSLKVRNLNISLKNNLLLKDINLDIKTGKTLMILGQSGVGKSLLGKALVRLLDSNFTISFDELSFHNSCIFNFNKEELRNFRSKVALVLQDAELSLYPYLDIGNLCHLVLKTHTKLKQKERKDYAFSYFQKLGFENLDRLWHSYANELSLGMARRVSLALALLNQPQILICDEITASLDKENASKIISILEELKNTAALVCITHDLNLVNSLADEILMLEKNSSNLYSLDEFLRYYNAEGHHHHHH” the “soluble on expression in E. coli” value was “soluble”. In the case of “MAHHHHHHMNLSDSNKDLNDSKSDKSTSWVKWFNSRAFSNFLVEVDNEYITDSFNLYGLKSEMPNFNHLLSIVAGDAPEEDDAKNAFGKDAVSLYSLIHARFITTPKGLSLMKDKYIKGDFGSCPRVSCSQHNVLPIGLFDQIKIAKVHVYCPLCQEIYKIHEEDKVYLDGSFFGTSFPHILLQTYPYYATLKTPSYCTSKIFGFSVYHNFTRTEYKIAKGEFGKLSRENFLKKNPKYLKKLKKEELQIKDT”, the “soluble on expression in E. coli” value is reported as “not soluble”. For “MIKPLTSSQEEVLKALNDDKYQIVGVFGPTGTGKTLLTLSYGIDVIKQGKFKKFIIVKPIVDIVTKKEITATELPNYHEVILSYIKDVLGPEYSATVDELYKSGRIEILDSRLLRGRTFDDSIIFIDEVQELQPESIIELIIRIGRNSKLVVAGDPVFQSLQMKTFKDPSELVREVLLNEEDAKVIDLGVKDIIRAGAKRGLRLLIEYRLRSRILSEEENKVLNVTKAHAPDADIITVVDLSEEKKKLGLDNLTTVPDSIIVVKEGNIGRLVGKGGERINSTEKEIGKKLRALELSLDFKEYIRAVHPLPWVVKHIEDADFKGNELVVQIKKETGAFMGQKGSYVRFVDEAIRKLLGVGIRVIAKENENS”, the “soluble on expression in E. coli” value was “soluble”. For “GMKKIRFAAIGLAHNHIYDMCQQLIDAGAELAGVFESDSDNRAKFTSLFPSVPFAASAEQLITDASIDLIACAVIPCDRAELALRTLDAGKDFFTAKPPLTTLEQLDAVQRRVAETGRKFAVYFNERINVDSALFAGELVQRGEIGRVIQTMGVGPHRERGARPDWFYQKRQYGGILCDIGIHQIEQFLYFTGNTNARVVTSQTANYHHPHHPEFEDFGDAMLLGDNGATGYFRCDWFTPDGLSVWGDGRLTILGTEGYIEIRKYVDLTRGESNVVYLVNGKGEQRFTPAGSVERAFFPDFLRDCRERTENAMSQSHIFKATELSILAQQAANKIA”, the “soluble on expression in E. coli” value was “soluble”. For “MGHHHHHHSHMASGSNWLSGVNVVLVMAYGSLDLKEEIDIRLSRVQDIKYEPQLLADDDARLLQLETQGNQKIPFHSEGRHPRSLMGKNFRSYLLDLRNTSTPFKGVRKALIDTLLDGYETARYGTGVFGQNEYLRYQEALSELATAVKARIGSSQRHHQSAAKDLTQSPEVSPTTIQVTYLPSSQKSKRAKHFLELKSFKDNYNTLESTL”, the “soluble on expression in E. coli” value was “not soluble”. For “MGSDKIHHHHHHMKIAILTTNQAADDSRLVATARKKGHSANLLDLRQMSIALRPSVADIYYQNELITHHFDAIIPRLNVSYTDYGINLLQQFICSNTYVSESPEALRLGRDKLKCLQHLLSKGLPFPTTAIAYTPDFFNAIMQQLQLPLVVKLIESTEGTGVFLARTHKEVDNLCKTFSLAGVSYLIQEFIAEAAGHDVRAFVVGNRVVAAMQRDSQDDDFRANVSLGAHSSAVTLSADEQELVLKATQSIGVHVAGVDFVRSNRGPLLLEINVSPDFTGEQGIEAITLRDVAADIIDYTVQHAEAFYQGRSKY”, the “soluble on expression in E. coli” value was “not soluble”. In the case of “IVGGRRARPHAWPFMVSLQLRGGHFCGATLIAPNFVMSAAHCVANVNVRAVRVVLGAHNLSRREPTRQVFAVQRIFENGYDPVNLLNDIVILQLNGSATINANVQVAQLPAQGRRLGNGVQCLAMGWGLLGRNRGIASVLQELNVTVVTSLCRRSNVCTLVRGRQAGVCFGDSGSPLVCNGLIHGIASFVRGGCASGLYPDAFAPVAQFVNWIDSIIQ”, the “soluble on expression in E. coli” value is reported as “soluble”. In the case of “MGSDKIHHHHHHMKVSTISIDLAKNVFQLLGMDKHAKQVFSKRLNRTQLSEFMSQQPVCDVVFEACYSSHYWGRKFLAMGHNVKLIPAQHVTPFVRGSKNDKNDAMAIYEANFRPNIRFVPIKTEAQQEILMLHRVRERLVKQRTACTNQIRGVLVDFGICFPQGHSAFERAMWDIINDESQRPIIKLMANDFWDEYQTVSTRLDRINRLIKQLVEQDPNGKILLSIPGVGPIIASAFAAAIGAGQAFNSAKELAVWLGLTPQQFASGNKSINGSITKRGDGYLRKQLIHGARTVVSHASKKNDDLNQWITQLRNRKSICTTVVATAHRLARLMWILLHKQVPYAPQYGAYQGISHEAN”, the “soluble on expression in E. coli” value is reported as “not soluble”. For “MTKKLHIKTWGCQMNEYDSSKMADLLGSTHGYELTEIAEEADVLLLNTCSIREKAQEKVFHQLGRWKALKDLNPNLIIGVGGCVASQEGAHIRERAHYVDVIFGPQTLHRLPEMINHVQGTRSPIVDISFPEIEKFDRLPEPRADGPTAFVSIMEGCNKYCTFCVVPYTRGEEVSRPCDDVLFEIAQLAAQGVREVNLLGQNVNAYRGETYDGEICSFAELLRLVAAIDGIDRVRFTTSHPIEFTDDIISVYEDTPELVSFLHLPVQSGSDRVLTMMKRRHTALEYKAIIRKLHNARPGILISSDFIIGFPGETQADFEQTMKLIADVNFDMSYSFVYSARPGTPAADMVDDVLEEEKKQRLYLLQDRITKQAMRFSRLMLGTVQRILVEGTSRKSVMELSGRTENNRVVNFEGTPDMIGKFVDVEIVDVYTNSLRGIVVRTEDQMDLRVHESPSSVIARTRKENEIGVGFYQPLEHHHHHH”, the “soluble on expression in E. coli” value was “soluble”. In the case of “MSLKVQGYANVVTLPNVTGRVIIVGDIHGCRAQLEDLLRAVSFKQGSDTLVAVGDLVNKGPDSFGVVRLLKRLGAYSVLGNHDAKLLKLVKKLGKKECLKGRDAKSSLAPLAQSIPTDVETYLSQLPHIIRIPAHNVMVAHAGLHPQRPVDRQYEDEVTTMRNLIEKEQEATGGVTLTATEETNDGGKPWASMWRGPETVVFGHDARRGLQEQYKPLAIGLDSRCVYGGRLSAAVFPGGCIISVPGWNGASAAAEGHHHHHH”, the “soluble on expression in E. coli” value is reported as “soluble”. With “MGSDKIHHHHHHMSTVTTGRTLDANGDPVPGTGFELDPDSQFADRVRERTGPVTSHPTRPVWGIPLEGSGDTIRTLSVFGPGYGGPPEHYHEQSPERFEVERGSLTMMLDGTDHEVTAGETATVETGVTHTFRNDTDKRAVVITNIYSPGRLRQVLPTLGGLAHDDEGNPENPLQQALVADRLDGNTVFTRQERLEPLSRLLTPVAELAGYQGAYAKYTQPAFWERHVEQPDL” the “soluble on expression in E. coli” value was “not soluble”. In the case of “MEKLENFWTRDELNTFFDYVTPERDVEQFTMFRVLAYSGIRKGELLALTWKDINFEDNTLRVNKTLTQGLGGKLIVQPPKSRAGRRTIDLDDSTMRYLRQWKGVQRETFLGMGFNTNNVDQLVFASNRNHFRSMNTPTKWLNKAIKATGLKHISIHGFRHTHASLLYQSGVGLKETQQRLGHSRADSSVTLDVYTHTTEQQNVAALQRFENYVEAKLEHHHHHH”, the “soluble on expression in E. coli” value is reported as “not soluble”. For “MGSDKIHHHHHHAPPTFPEVKKIHAHRLSDELLISYPLDMAVSEDYIFILALADNAWLQVYDKTTGQLLGSFVTRGQGPGEATTANMCYYNAREKKISVYDESSMKLLTYRFDKDADNWGALIEERSFYDLGGTVRRVWELRNGRFLVDGQLGTKSDQQKRFQMLADAKVVADYNDFPIDTPKERSVWSSPAIAISPDCKKMAVGTLYGGILELFDLSQNIELRAIRKFYPPVVQYLSGTIQNTEETVWGFSALCVTDERIYSVFIGDKNPNLFNNLSVFDWDGRELIKYNTDCLVLRICASTQEPNKLYGIAFSETHEFYLVSFSLGS”, the “soluble on expression in E. coli” value was “not soluble”. For “AIAETEIHVPVGSPTIRKFQIFVDEHNVTEGAMKLIKELRPGWDPNLIRTKLFTDGTTNKLVGCYVEDCVEDVVLVRVYGNKTELIVDRDNELKSFQVLHANGCAPRLYCTFQNGICYEFMQGRALDTQDVRDPVLLRLIAREMARIHAIHAHNGCIPKPNLWIKMRKYFSLVATEFTEQASNIRIQQEVPSQEVLEQEMMWMKEHLSQLGSPVVLCHNDLLCKNIIHNAKEGHVRFIDYEYSSYNYQAFDIGNHFNEFAGMSEPDYNLYPSREMQLDWLQTYLQAYKLFTKKGEDVSERELETLYVQVNKFALASHFFWGFWALIQAKYSTIEFDFLGYAVLRFNQYFKTKPAVMALEIPK”, the “soluble on expression in E. coli” value was “soluble”. For “MLPVSCKLPNMGTYQSYLSSSMPAGCVLPVGGNFEILLHYYLLNYAKKCHQSEETMVSMIIANALLGIPKVLYKSKTGKYSFPHTYIRAVHALQTNQPLVSSQTGLESVMGKYQLLTSVLQCLTKILTIDMVITVKRHPQKVHNQDSEDELLEHHHHHH”, the “soluble on expression in E. coli” value was “not soluble”. With “MGHHHHHHHHHHSSGHIDDDDKHMVGATVAPSSRRDFTFDLYRALASAAPSQNIFFSPVSISMSLAMLSLGAGSSTKMQILEGLGLNLQKSSEKELHRGFQQLLQELNQPRDGFQLSLGNALFTDLVVDLQDTFVSAMKTLYLADTFPTNFRDSAGAMKQINDYVAKQTKGKIVDLLKNLDSNAVVIMVNYIFFKAKWETSFNHKGTQEQDFYVTSETVVRVPMMSREDQYHYLLDRNLSCRVVGVPYQGNATALFILPSEGKMQQVENGLSEKTLRKWLKMFKKRQLELYLPKFSIEGSYQLEKVLPSLGISNVFTSHADLSGISNHSNIQVSEMVHKAVVEVDESGTRAAAATGTIFTFRSARLNSQRLVFNRPFLMFIVDNNILFLGKVNRP” the “soluble on expression in E. coli” value was “soluble”.
